Paper PMC6066285 (Cell reports, 2018)

Biological target: the molecule itself
Test: SEC

B1: recombinant FOG-3 (sizing column, Figure S2A) (domain or fragment)
chain: MYTEVRELVNFVCRYLFGHIPRRPVGIFGAELGNYLVSHFSSTWDVHHPKNGEMKRMINTTTSLCFASSAEEAGVPPSDVLRLLPTNMIIFANPGHVFVRLSENGIETPIWIGDVNCDENYQSVPEYVVRTAAIRAE
stoichiometry N: 2
